Assay results taken from patent US11351270B2, “Junctophilin-2 fragments and uses therefor” (University of Iowa Research Foundation, priority 2016, dated 2022).

Tests used:
[1] = system: TATA box DNA sequences; experiment: Gel shift assay with TATA box sequences; format: binding; conditions: GST-purified protein; cMyc or CMV promoter sequences
Source text: FIGS. 11A-H. JP2NT is a TATA-box binding protein enriched at transcription start site (TSS) and interacts with basic transcription machinery. […] C) 293T cells were transfected with HA-tagged JP2NT, followed by crosslinking-reversal immunoprecipitation with anti-HA and immunoblotting with anti-polymerase II (Rpb1) or anti-TATA box binding protein (TBP). D-H) JP2NT binds to TATA box DNA sequences in vitro. D-E) Gel shift assays of GST-purified JP2NT binding to WT (D). or mutated TATA box-containing sequences (E) derived from the cMyc promoter. F) Summary of the results of gel shift assays with various of TATA box variants or mutants. Mutation of the core TATA sequences abolished the interaction with GST-JP2NT. G) Deletion of the ARR, but not the N-terminal MORN domains, eliminated JP2NT binding to the TATA box sequence. H) The peptide JP2^331-405 containing the ARR specifically binds to WT TATA box sequence.
TBP specifically binds to TATA boxes, eukaryotic core cis-regulatory elements localized at transcription start site. […] This interaction was abrogated by mutation of the TATA box elements (FIGS. 11E&G and 17B). It was concluded that JP2NT is a DNA binding protein, binding to consensus TATA box represented as TATAA(A/T) or TATATA (FIG. 11F).

[2] = system: cultured adult murine cardiomyocytes; experiment: Affymetrix Genechip analysis of cultured cardiomyocytes; format: cell-based, mouse
Protocol: Genecarrior-1 (Epoch Lab) was used to transfect plasmids into HEK293T cells. Isolation and culture of cardiomyocytes were performed as described previously (Guo et al., 2015). Adenoviruses were applied at a multiplicity of infection (MOI) of about 100, which results in transfection of almost all cells as confirmed by immunostaining of eptiope tags.
Microarray assay was performed by Affymetrix GeneChip® Mouse Genome 430 2.0 according to the standard procedure of cRNA preparation and Genechip hybridization. The R package limma (version 3.22.7) (Ritchie et al., 2015) was used for processing microarray data and identifying differentially expressed genes (the cutoff of significance was p value<0.01). David (Huang et al., 2009) was used for gene enrichment (GO) analysis. Ingenuity pathway analysis (IPA, Qiagen) was used for pathway analysis.

[3] = system: promoters of Myc, KLF6, TGFβR1 and NFKBIA; experiment: Promoter luciferase reporter assay; format: cell-based; conditions: co-expression; vs empty vector control
Protocol: Firefly and Renilla reporter plasmids and JP2NT variants were co-transfected into HEK293 cells. The protein of the cells was harvested 48 hours after transfection. Promega dual luciferase system was used to evaluate the luciferase activity.
To further test whether JP2NT regulates transcription of these genes, luciferase reporters controlled by promoters of Myc, KLF6, TGFβR1 and NFKBIA were constructed.

[4] = system: cardiac transcription profile; experiment: RNA-Seq of myocardium of JP2NT-OE mice; format: in vivo, mouse
Protocol: Illumina TruSeq Stranded mRNA Library Prep Kit was used to prepare the sequencing library for myocardium samples. Sequencing was performed by Illumina HiSeq 2500 platform (2×125 bp paired-end). Kallisto (0.42.5) software (Bray et al., 2016) was used to quantify transcript abundance of mouse transcriptome (Grcm38). Sleuth (0.28.1) software (Pimentel et al., 2018) was used to investigate the differential expression of transcripts between groups (the cutoff of significance was p value<0.01).

[5] = system: cardiac hypertrophy; experiment: Angiotensin-induced cardiac hypertrophy in JP2NT OE mice; format: in vivo, mouse
Protocol: A transgenic mouse line with cardiac specific overexpression of an exogenous protein sequence corresponding to JP2NT was prepared. JP2NT (JP2(1-565)) transgenic mice were generated based on a tet-off system. The Flag and HA tagged JP2NT cDNA was cloned downstream of tet-operated alpha-MHC promoter, enabling the cardiac specific and conditional expression of JP2NT (FIG. 9A). The plasmid (αMHC-JP2NT) was delivered by pronuclear injection into fertilized eggs to make transgenic founders. The transgenic mouse lines were backcrossed to C57 background for 9 generations. αMHC-JP2NT mice have been crossed with αMHC-tTA mice to generate double transgenic αMHC-tTA-JP2NT mice (noted as JP2NT OE mice). This allows for inducible and cardiac-specific expression of JP2NT, in which tTA binds to tet-operon and activates transcription of JP2NT. Thus, the expression and nuclear localization of JP2NT in transgenic mice have been confirmed.

[6] = system: HEK293T cells; experiment: Subcellular localization by confocal imaging; format: cell-based; conditions: HEK293T cells and cardiomyocytes
Protocol: Immunofluorescence was done as described previously (Guo et al., 2015). A Zeiss confocal microscope LSM510 was used for recording cell images.
To Investigate the molecular mechanism of JP2NT nuclear importation, an in silico analysis (Sigrist et al., 2002) was performed. […] These domains are evolutionarily conserved among species (FIGS. 18B-C). […] Indicating this NLS is Indispensable for nuclear localization of JP2NT. A fusion protein containing mCherry and the bNLS peptide with the ARR was imported into nuclei (FIG. 16D).

B1: JP2NT: shorter form of Junctophilin-2 including the first 565 amino acids of N-terminus of JP2 (protein, UniProt Q9BR39 1-565, looked up, fragment)
chain: MSGGRFDFDDGGAYCGGWEGGKAHGHGLCTGPKGQGEYSGSWNFGFEVAGVYTWPSGNTFEGYWSQGKRHGLGIETKGRWLYKGEWTHGFKGRYGIRQSSSSGAKYEGTWNNGLQDGYGTETYADGGTYQGQFTNGMRHGYGVRQSVPYGMAVVVRSPLRTSLSSLRSEHSNGTVAPDSPASPASDGPALPSPAIPRGGFALSLLANAEAAARAPKGGGLFQRGALLGKLRRAESRTSVGSQRSRVSFLKSDLSSGASDAASTASLGEAAEGADEAAPFEADIDATTTETYMGEWKNDKRSGFGVSERSSGLRYEGEWLDNLRHGYGCTTLPDGHREEGKYRHNVLVKDTKRRMLQLKSNKVRQKVEHSVEGAQRAAAIARQKAEIAASRTSHAKAKAEAAEQAALAANQESNIARTLARELAPDFYQPGPEYQKRRLLQEILENSESLLEPPDRGAGAAGLPQPPRESPQLHERETPRPEGGSPSPAGTPPQPKRPRPGVSKDGLLSPGAWNGEPSGEGSRSVTPSEGAGRRSPARPATERMAIEALQAPPAPSREPEVALYQG
modifications: GST or adenoviral forms
notes: shorter form of Junctophilin-2 including the first 565 amino acids of N-terminus of JP2
[1]
  binding to TATA box: directly binds
[2]
  differentially expressed genes mapped to genomic loci bound in ChIP-seq: about 74%
[2]; IPA of differentially expressed genes
  ERK/MAPK, NF-κB, TGF-β and integrin signaling pathways (Ingenuity Pathway Analysis): predicted to be inhibited
[2]; vs Ad-Empty control
  significantly induced known genes (p<0.01): 574 genes
  significantly repressed known genes (p<0.01): 1996 genes
[3]
  promoter activity (firefly luciferase): significantly attenuated
[4]; TAB
  ERK, TGF-β, CREB and NFκ-B signaling pathways (IPA): predicted inhibition
  known genes of negatively influenced transcripts: 481 genes
  known genes of positively influenced transcripts: 476 genes
  transcripts negatively influenced: 540 transcripts
  transcripts positively influenced: 542 transcripts
[4]; TAB, linear regression model, p<0.01
  transcripts significantly different in response to cardiac stress: 1082 transcripts
[4]; TAB, p<0.01
  known genes from which the significantly different transcripts derive: 954 genes
[4]; baseline, relative to control littermates
  significantly altered genes (p<0.01) at baseline: 49 genes
[5]
  Angiotensin-li induced cardiac hypertrophy: resistant
[6]
  nuclear localization / nuclear importation: highly enriched in nuclei
